These sequences were tested against Fyn (UniProt P06241) (assay: phosphorylation enrichment, bacterial display (enrichment ratio); higher = better substrate or ligand; peptides without Tyr show the background).
Fyn, sequence (P06241 whole entry, looked up): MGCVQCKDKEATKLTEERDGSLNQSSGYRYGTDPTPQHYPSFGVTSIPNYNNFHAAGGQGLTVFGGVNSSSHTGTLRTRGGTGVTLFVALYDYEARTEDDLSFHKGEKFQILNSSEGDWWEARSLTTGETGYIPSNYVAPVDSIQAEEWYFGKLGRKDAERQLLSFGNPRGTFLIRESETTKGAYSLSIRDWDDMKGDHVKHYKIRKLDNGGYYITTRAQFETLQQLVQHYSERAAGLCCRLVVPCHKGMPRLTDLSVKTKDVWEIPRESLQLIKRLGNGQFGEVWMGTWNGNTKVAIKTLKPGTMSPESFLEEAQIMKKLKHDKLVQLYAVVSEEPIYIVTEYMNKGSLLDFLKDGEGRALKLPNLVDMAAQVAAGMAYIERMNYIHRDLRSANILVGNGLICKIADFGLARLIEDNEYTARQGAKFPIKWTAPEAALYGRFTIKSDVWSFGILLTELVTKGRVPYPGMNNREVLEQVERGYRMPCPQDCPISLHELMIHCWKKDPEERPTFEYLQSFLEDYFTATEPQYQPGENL
GVKLTYGDAQS [SLC28A1_Y404_N409S] showed a phosphorylation enrichment of 0.426.
For FQRLQYIKQLG [SAMHD1_Y146_R145Q], the phosphorylation enrichment was 0.374.
Sequence LVPAWYIGFLC [KCNQ2_Y237_T234P] has a phosphorylation enrichment of 0.487.
In the case of NRLTDYFELLL [BBS10_Y536_P539L_YF], the phosphorylation enrichment is reported as 0.622.
In the case of AFSTVYKGLWI [EGFR_Y727_G724S], the phosphorylation enrichment is reported as 0.433.
TLNHQYDFTFD [CSNK1A1_Y292_YF] was tested, and the phosphorylation enrichment was 0.507.
With EPDSLYGCGGG [ATM_Y2019] the phosphorylation enrichment was 2.06.
Sequence RASGIYYVPKG [APBB1IP_Y340] has a phosphorylation enrichment of 15.1.
In the case of EGLKVYINGTL [ADGRD1_Y183_V184I], the phosphorylation enrichment is reported as 0.401.
In the case of QFKDKYLAKHN [CASK_Y712_YF], the phosphorylation enrichment is reported as 0.266.
Work on RLLRGYNQSAF [HLA-C_Y137_D138N_YF] yielded a phosphorylation enrichment of 0.458.
RSIGEYDVLRG [PRKDC_Y2936] showed a phosphorylation enrichment of 0.671.
In the case of LAARYYNWVSF [FLT4_Y1231], the phosphorylation enrichment is reported as 0.654.
Sequence NFAKMYCNPDA [KNL1_Y489_YF] has a phosphorylation enrichment of 0.569.
With IDSTPYGQWYE [RPS8_Y109_R110G] the phosphorylation enrichment was 2.59.
GGFTCYCDGKK [PROS1_Y266_YF] showed a phosphorylation enrichment of 0.485.
LVKDPYVMFPQ [PLEKHG2_Y489_P484L] was tested, and the phosphorylation enrichment was 4.32.
For KPLMPSMRYSR [SMARCE1_Y73_Y73S], the phosphorylation enrichment was 0.383.
VSKGGYFSVNL [C3orf33_Y164] gave a phosphorylation enrichment of 0.485.
AAILGYCRGEA [XPC_Y669] was tested, and the phosphorylation enrichment was 0.438.
For YGAHNYHPLPV [OAT_Y55], the phosphorylation enrichment was 0.599.
KVKPIYFHTRG [AR_Y916_Q920R] gave a phosphorylation enrichment of 0.448.
For CTTFHYNYMCN [TP53_Y234_I232F], the phosphorylation enrichment was 0.547.
In the case of FRAPGYREVVI [TNS2_Y673_YF], the phosphorylation enrichment is reported as 0.399.
For LLREWYMIISR [HUWE1_Y4066], the phosphorylation enrichment was 0.588.
KLFIEYPTGSG [IRF2BPL_Y423] showed a phosphorylation enrichment of 0.444.
Sequence CTNELYMMMRD [FGFR1_Y730] has a phosphorylation enrichment of 0.705.
In the case of ARGMEYLAEQK [MST1R_Y1198_G1195S], the phosphorylation enrichment is reported as 0.491.
For RGVTRYIYNRE [HLA-DQB1_Y62_Y58G], the phosphorylation enrichment was 0.96.

What follows are sequences tested on AncSZ in the same assay as above.
In the case of GVKLTYGDAQS [SLC28A1_Y404_N409S], the phosphorylation enrichment is reported as 0.599.
FQRLQYIKQLG [SAMHD1_Y146_R145Q] gave a phosphorylation enrichment of 0.715.
Sequence LVPAWYIGFLC [KCNQ2_Y237_T234P] has a phosphorylation enrichment of 1.25.
NRLTDYFELLL [BBS10_Y536_P539L_YF] was tested, and the phosphorylation enrichment was 1.36.
AFSTVYKGLWI [EGFR_Y727_G724S] was tested, and the phosphorylation enrichment was 1.01.
Sequence TLNHQYDFTFD [CSNK1A1_Y292_YF] has a phosphorylation enrichment of 1.22.
With EPDSLYGCGGG [ATM_Y2019] the phosphorylation enrichment was 1.01.
In the case of RASGIYYVPKG [APBB1IP_Y340], the phosphorylation enrichment is reported as 1.39.
With EGLKVYINGTL [ADGRD1_Y183_V184I] the phosphorylation enrichment was 1.18.
Sequence QFKDKYLAKHN [CASK_Y712_YF] has a phosphorylation enrichment of 0.519.
RLLRGYNQSAF [HLA-C_Y137_D138N_YF] showed a phosphorylation enrichment of 0.54.
RSIGEYDVLRG [PRKDC_Y2936] showed a phosphorylation enrichment of 0.795.
For LAARYYNWVSF [FLT4_Y1231], the phosphorylation enrichment was 1.55.
NFAKMYCNPDA [KNL1_Y489_YF] was tested, and the phosphorylation enrichment was 0.942.
In the case of IDSTPYGQWYE [RPS8_Y109_R110G], the phosphorylation enrichment is reported as 1.12.
GGFTCYCDGKK [PROS1_Y266_YF] showed a phosphorylation enrichment of 1.12.
In the case of LVKDPYVMFPQ [PLEKHG2_Y489_P484L], the phosphorylation enrichment is reported as 1.45.
Work on KPLMPSMRYSR [SMARCE1_Y73_Y73S] yielded a phosphorylation enrichment of 0.823.
In the case of VSKGGYFSVNL [C3orf33_Y164], the phosphorylation enrichment is reported as 0.875.
AAILGYCRGEA [XPC_Y669] showed a phosphorylation enrichment of 0.789.
Work on YGAHNYHPLPV [OAT_Y55] yielded a phosphorylation enrichment of 0.61.
KVKPIYFHTRG [AR_Y916_Q920R] was tested, and the phosphorylation enrichment was 0.853.
With CTTFHYNYMCN [TP53_Y234_I232F] the phosphorylation enrichment was 1.03.
FRAPGYREVVI [TNS2_Y673_YF] was tested, and the phosphorylation enrichment was 0.52.
LLREWYMIISR [HUWE1_Y4066] gave a phosphorylation enrichment of 1.35.
Sequence KLFIEYPTGSG [IRF2BPL_Y423] has a phosphorylation enrichment of 0.636.
CTNELYMMMRD [FGFR1_Y730] showed a phosphorylation enrichment of 1.34.
In the case of ARGMEYLAEQK [MST1R_Y1198_G1195S], the phosphorylation enrichment is reported as 0.807.
RGVTRYIYNRE [HLA-DQB1_Y62_Y58G] showed a phosphorylation enrichment of 1.34.

These sequences were tested against EPHB2 (UniProt P29323) in the same assay as above.
EPHB2, sequence (P29323 whole entry, looked up): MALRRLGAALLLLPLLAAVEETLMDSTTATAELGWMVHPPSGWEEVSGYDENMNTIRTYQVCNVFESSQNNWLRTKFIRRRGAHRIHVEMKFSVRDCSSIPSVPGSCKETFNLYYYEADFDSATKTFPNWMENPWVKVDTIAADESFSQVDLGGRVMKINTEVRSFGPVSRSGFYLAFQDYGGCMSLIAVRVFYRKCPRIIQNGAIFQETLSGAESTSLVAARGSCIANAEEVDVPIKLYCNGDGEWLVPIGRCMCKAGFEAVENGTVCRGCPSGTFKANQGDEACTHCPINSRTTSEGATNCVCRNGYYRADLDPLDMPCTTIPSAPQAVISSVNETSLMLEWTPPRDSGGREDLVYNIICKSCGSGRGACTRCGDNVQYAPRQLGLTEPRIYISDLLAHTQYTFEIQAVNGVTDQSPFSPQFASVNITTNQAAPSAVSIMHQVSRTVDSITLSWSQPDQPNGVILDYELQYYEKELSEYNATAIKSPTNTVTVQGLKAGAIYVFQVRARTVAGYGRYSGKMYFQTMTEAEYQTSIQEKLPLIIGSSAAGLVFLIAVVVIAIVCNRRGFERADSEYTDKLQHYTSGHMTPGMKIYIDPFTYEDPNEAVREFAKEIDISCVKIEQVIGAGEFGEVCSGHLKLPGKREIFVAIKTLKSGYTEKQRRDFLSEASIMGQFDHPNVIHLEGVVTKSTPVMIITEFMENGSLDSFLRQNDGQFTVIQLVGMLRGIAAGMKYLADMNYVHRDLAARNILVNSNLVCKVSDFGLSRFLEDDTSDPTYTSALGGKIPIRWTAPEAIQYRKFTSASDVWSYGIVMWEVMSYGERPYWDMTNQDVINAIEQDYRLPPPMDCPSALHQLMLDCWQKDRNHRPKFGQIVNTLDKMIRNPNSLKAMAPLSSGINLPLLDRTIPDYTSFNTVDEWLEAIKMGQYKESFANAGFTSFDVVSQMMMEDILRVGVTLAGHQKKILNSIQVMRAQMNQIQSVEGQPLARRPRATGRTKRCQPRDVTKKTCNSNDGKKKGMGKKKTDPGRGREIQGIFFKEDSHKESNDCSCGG
GVKLTYGDAQS [SLC28A1_Y404_N409S] gave a phosphorylation enrichment of 0.34.
FQRLQYIKQLG [SAMHD1_Y146_R145Q] gave a phosphorylation enrichment of 0.705.
In the case of LVPAWYIGFLC [KCNQ2_Y237_T234P], the phosphorylation enrichment is reported as 0.625.
NRLTDYFELLL [BBS10_Y536_P539L_YF] was tested, and the phosphorylation enrichment was 0.633.
AFSTVYKGLWI [EGFR_Y727_G724S] was tested, and the phosphorylation enrichment was 0.498.
Sequence TLNHQYDFTFD [CSNK1A1_Y292_YF] has a phosphorylation enrichment of 0.543.
In the case of EPDSLYGCGGG [ATM_Y2019], the phosphorylation enrichment is reported as 0.766.
Work on RASGIYYVPKG [APBB1IP_Y340] yielded a phosphorylation enrichment of 9.84.
EGLKVYINGTL [ADGRD1_Y183_V184I] gave a phosphorylation enrichment of 0.614.
QFKDKYLAKHN [CASK_Y712_YF] was tested, and the phosphorylation enrichment was 0.268.
With RLLRGYNQSAF [HLA-C_Y137_D138N_YF] the phosphorylation enrichment was 0.417.
RSIGEYDVLRG [PRKDC_Y2936] was tested, and the phosphorylation enrichment was 0.779.
For LAARYYNWVSF [FLT4_Y1231], the phosphorylation enrichment was 1.02.
Sequence NFAKMYCNPDA [KNL1_Y489_YF] has a phosphorylation enrichment of 0.706.
IDSTPYGQWYE [RPS8_Y109_R110G] showed a phosphorylation enrichment of 0.612.
With GGFTCYCDGKK [PROS1_Y266_YF] the phosphorylation enrichment was 0.515.
Work on LVKDPYVMFPQ [PLEKHG2_Y489_P484L] yielded a phosphorylation enrichment of 0.608.
Sequence KPLMPSMRYSR [SMARCE1_Y73_Y73S] has a phosphorylation enrichment of 0.445.
Work on VSKGGYFSVNL [C3orf33_Y164] yielded a phosphorylation enrichment of 0.672.
Work on AAILGYCRGEA [XPC_Y669] yielded a phosphorylation enrichment of 0.45.
In the case of YGAHNYHPLPV [OAT_Y55], the phosphorylation enrichment is reported as 1.53.
With KVKPIYFHTRG [AR_Y916_Q920R] the phosphorylation enrichment was 0.498.
Work on CTTFHYNYMCN [TP53_Y234_I232F] yielded a phosphorylation enrichment of 0.629.
Work on FRAPGYREVVI [TNS2_Y673_YF] yielded a phosphorylation enrichment of 0.422.
LLREWYMIISR [HUWE1_Y4066] was tested, and the phosphorylation enrichment was 0.792.
Work on KLFIEYPTGSG [IRF2BPL_Y423] yielded a phosphorylation enrichment of 0.565.
CTNELYMMMRD [FGFR1_Y730] gave a phosphorylation enrichment of 1.09.
With ARGMEYLAEQK [MST1R_Y1198_G1195S] the phosphorylation enrichment was 0.47.
Work on RGVTRYIYNRE [HLA-DQB1_Y62_Y58G] yielded a phosphorylation enrichment of 0.547.

The sequences below were run against Jak2 (UniProt O60674) in the same assay as above.
Jak2, sequence (O60674 whole entry, looked up): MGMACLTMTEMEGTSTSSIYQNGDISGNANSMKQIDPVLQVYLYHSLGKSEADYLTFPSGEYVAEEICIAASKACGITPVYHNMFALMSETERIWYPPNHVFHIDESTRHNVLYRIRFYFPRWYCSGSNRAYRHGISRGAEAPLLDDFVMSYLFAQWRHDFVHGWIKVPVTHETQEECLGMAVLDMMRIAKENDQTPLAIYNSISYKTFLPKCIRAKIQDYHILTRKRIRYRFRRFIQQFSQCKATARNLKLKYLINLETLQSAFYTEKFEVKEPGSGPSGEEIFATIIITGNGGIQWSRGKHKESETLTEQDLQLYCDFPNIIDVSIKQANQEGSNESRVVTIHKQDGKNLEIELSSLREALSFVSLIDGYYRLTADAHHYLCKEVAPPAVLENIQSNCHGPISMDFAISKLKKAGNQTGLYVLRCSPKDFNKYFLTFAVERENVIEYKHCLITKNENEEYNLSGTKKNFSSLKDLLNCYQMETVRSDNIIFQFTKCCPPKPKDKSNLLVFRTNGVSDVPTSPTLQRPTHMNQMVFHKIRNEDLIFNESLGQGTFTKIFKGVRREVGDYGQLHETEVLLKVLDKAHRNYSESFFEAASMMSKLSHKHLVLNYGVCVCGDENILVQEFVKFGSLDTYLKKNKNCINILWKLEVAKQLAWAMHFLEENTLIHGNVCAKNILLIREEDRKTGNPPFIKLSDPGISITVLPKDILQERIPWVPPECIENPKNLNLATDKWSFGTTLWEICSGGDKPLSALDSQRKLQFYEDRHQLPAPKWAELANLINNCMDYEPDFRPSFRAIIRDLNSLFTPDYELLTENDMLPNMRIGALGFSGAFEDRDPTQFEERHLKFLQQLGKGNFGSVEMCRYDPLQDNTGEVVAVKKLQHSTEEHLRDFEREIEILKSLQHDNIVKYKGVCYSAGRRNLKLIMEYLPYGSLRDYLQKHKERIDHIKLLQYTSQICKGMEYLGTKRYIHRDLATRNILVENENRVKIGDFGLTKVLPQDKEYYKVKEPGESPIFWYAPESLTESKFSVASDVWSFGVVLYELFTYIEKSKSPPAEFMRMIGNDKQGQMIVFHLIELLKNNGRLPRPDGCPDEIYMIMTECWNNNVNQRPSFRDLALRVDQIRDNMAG
Work on GVKLTYGDAQS [SLC28A1_Y404_N409S] yielded a phosphorylation enrichment of 0.46.
Work on FQRLQYIKQLG [SAMHD1_Y146_R145Q] yielded a phosphorylation enrichment of 0.934.
LVPAWYIGFLC [KCNQ2_Y237_T234P] showed a phosphorylation enrichment of 1.1.
NRLTDYFELLL [BBS10_Y536_P539L_YF] showed a phosphorylation enrichment of 1.35.
AFSTVYKGLWI [EGFR_Y727_G724S] gave a phosphorylation enrichment of 1.1.
TLNHQYDFTFD [CSNK1A1_Y292_YF] was tested, and the phosphorylation enrichment was 0.989.
In the case of EPDSLYGCGGG [ATM_Y2019], the phosphorylation enrichment is reported as 1.11.
Work on RASGIYYVPKG [APBB1IP_Y340] yielded a phosphorylation enrichment of 4.09.
With EGLKVYINGTL [ADGRD1_Y183_V184I] the phosphorylation enrichment was 1.38.
In the case of QFKDKYLAKHN [CASK_Y712_YF], the phosphorylation enrichment is reported as 0.788.
Work on RLLRGYNQSAF [HLA-C_Y137_D138N_YF] yielded a phosphorylation enrichment of 0.476.
With RSIGEYDVLRG [PRKDC_Y2936] the phosphorylation enrichment was 0.73.
With LAARYYNWVSF [FLT4_Y1231] the phosphorylation enrichment was 2.14.
Sequence NFAKMYCNPDA [KNL1_Y489_YF] has a phosphorylation enrichment of 0.766.
IDSTPYGQWYE [RPS8_Y109_R110G] gave a phosphorylation enrichment of 0.984.
GGFTCYCDGKK [PROS1_Y266_YF] was tested, and the phosphorylation enrichment was 0.998.
Sequence LVKDPYVMFPQ [PLEKHG2_Y489_P484L] has a phosphorylation enrichment of 1.79.
For KPLMPSMRYSR [SMARCE1_Y73_Y73S], the phosphorylation enrichment was 0.555.
VSKGGYFSVNL [C3orf33_Y164] gave a phosphorylation enrichment of 1.08.
AAILGYCRGEA [XPC_Y669] was tested, and the phosphorylation enrichment was 0.786.
YGAHNYHPLPV [OAT_Y55] was tested, and the phosphorylation enrichment was 0.642.
Work on KVKPIYFHTRG [AR_Y916_Q920R] yielded a phosphorylation enrichment of 0.885.
With CTTFHYNYMCN [TP53_Y234_I232F] the phosphorylation enrichment was 0.842.
FRAPGYREVVI [TNS2_Y673_YF] was tested, and the phosphorylation enrichment was 0.55.
Work on LLREWYMIISR [HUWE1_Y4066] yielded a phosphorylation enrichment of 1.3.
KLFIEYPTGSG [IRF2BPL_Y423] was tested, and the phosphorylation enrichment was 0.653.
With CTNELYMMMRD [FGFR1_Y730] the phosphorylation enrichment was 1.35.
ARGMEYLAEQK [MST1R_Y1198_G1195S] was tested, and the phosphorylation enrichment was 0.77.
RGVTRYIYNRE [HLA-DQB1_Y62_Y58G] showed a phosphorylation enrichment of 1.25.

From the supplement of paper PMC10065799, “High-throughput profiling of sequence recognition by tyrosine kinases and SH2 domains using bacterial peptide display” (eLife, 2023)
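Further: 11-residue human phosphosite peptides and single-mutation variants displayed on the E. coli surface, counted by deep sequencing, each peptide's frequency after selection divided by its frequency in the unselected input library; frequency after pTyr selection over input frequency; kinase dosed for 20-30% of maximal phosphorylation in three min.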
